Experimental data taken from patent US20230103584A1 (BLACK BELT THERAPEUTICS, published 2023).

Experiments:
[1] = molecular target: Recombinant, Histidine-tagged extracellular domain of human CD38 (human) (UniProt P28907); test: ForteBio BLI
[2] = molecular target: T1, Human CD38 expressed on cells (Daudi, Raji, Jurkat, human PBMC/T cells, Tregs, HEK-293T transfectants) (human, UniProt P28907 1-300); test: cell-based or functional assay
T1 sequence: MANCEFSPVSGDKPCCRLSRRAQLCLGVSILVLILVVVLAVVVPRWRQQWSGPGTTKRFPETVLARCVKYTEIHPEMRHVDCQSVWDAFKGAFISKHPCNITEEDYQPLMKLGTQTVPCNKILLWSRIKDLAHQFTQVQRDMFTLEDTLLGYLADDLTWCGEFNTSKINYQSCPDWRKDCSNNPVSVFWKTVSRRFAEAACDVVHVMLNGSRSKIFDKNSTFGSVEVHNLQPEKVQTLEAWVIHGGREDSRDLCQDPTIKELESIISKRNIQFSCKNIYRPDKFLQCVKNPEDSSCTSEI

[3] = molecular target: T1, Human CD38 expressed on cells (Daudi, …); test: cell-based or functional assay; remark: listed apart in the source
[4] = molecular target: T2, Cynomolgus monkey CD38 expressed on T cells / PBMC (Cynomolgus monkey, UniProt Q5VAN0 1-301); test: flow cytometry on cynomolgus cells, gated on CD4-positive cells, secondary antibody staining
T2 construct: whole, on cells; also called cyno T cells; cynomolgus pan T cells
T2 sequence (looked up): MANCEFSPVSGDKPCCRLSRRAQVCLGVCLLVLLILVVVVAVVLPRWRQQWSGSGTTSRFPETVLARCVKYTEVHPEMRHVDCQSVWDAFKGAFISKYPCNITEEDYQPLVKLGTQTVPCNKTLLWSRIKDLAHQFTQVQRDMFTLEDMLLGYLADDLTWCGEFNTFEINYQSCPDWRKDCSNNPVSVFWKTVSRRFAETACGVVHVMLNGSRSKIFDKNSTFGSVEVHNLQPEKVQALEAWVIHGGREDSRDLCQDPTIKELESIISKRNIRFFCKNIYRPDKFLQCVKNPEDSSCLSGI

[5] = molecular target: T2, Cynomolgus monkey CD38 expressed on T …; test: flow cytometry on cynomolgus cells, gated on CD8-positive cells, secondary antibody staining
[6] = molecular target: T1, Human CD38 expressed on cells (Daudi, …); test: cell-based or functional assay; remark: listed apart in the source
[7] = molecular target: T1, Human CD38 expressed on cells (Daudi, …); test: cell-based or functional assay; remark: listed apart in the source

Molecule: IB4, reference monoclonal agonistic mouse anti-human CD38 antibody
- Kd [1]: 9 nM

B1: aCD38-b-348 (human IgG1) (antibody, V domains shown)
VH: QLQLQESGPGLVKPSETLSLTCTVSGGSISSSDYYWGWIRQPPGKGLEWIGSIYYSGSTYYNPSLKSRVTISVDTSKNQFSLKLSSVTAADTAVYYCARGQYSSGWYAYPFDMWGQGTMVTVSS
VL: EIVLTQSPGTLSLSPGERATLSCRASQSVRSSYLAWYQQKPGQAPRLLIYGASSRATGIPDRFSGSGSGTDFTLTISRLEPEDFAVYYCQQDGNVYTFGGGTKVEIK
notes: First made as IgG in yeast
- ADCC Max. % lysis [2]: 44%
- CDC EC50, 10% complement, target Raji cells [3]: 0.3 µg/mL
- CDC EC50, 10% complement, target Raji cells (repeat) [3]: 0.17 µg/mL
- EC50 (read off the curve) [4]: ~0.9 µg/mL
- EC50 (read off the curve) [5]: ~0.9 µg/mL
- CDC EC50, 10% complement, target Daudi cells (experiment 15) [6]: 0.17 µg/mL
- CDC EC50, 10% complement, target Daudi cells (experiment 16) [6]: 0.34 µg/mL
- CDC EC50, 10% complement, target Daudi cells (experiment 17) [6]: 0.26 µg/mL
- ADCC EC50, target Daudi cells (experiment 6) [7]: 0.00032 µg/mL
- ADCC EC50, target Daudi cells (experiment 7) [7]: 0.0008 µg/mL
- ADCC EC50, target Daudi cells (experiment 8) [7]: 0.00042 µg/mL

B2: aCD38-b-348-m1 (antibody, IgG1, V domains shown)
VH: QLQLQESGPGLVKPSETLSLTCTVSGGSISSSDYYWGWIRQPPGKGLEWIGSIYYSGSTYYNPSLKSRVTISVDTSKNQFSLKLSSVTAADTAVYYCARGQYSSGWYAYPFDMWGQGTMVTVSS
VL: EIVLTQSPGTLSLSPGERATLSCRASQSVRSSYLAWYQQKPGQAPRLLIYGASSRATGIPDRFSGSGSGTDFTLTISRLEPEDFAVYYCQQEANVYTFGGGTKVEIK
- ADCC Max. % lysis [2]: 38%

B3: aCD38-b-348-m2 (antibody, IgG1, V domains shown)
VH: QLQLQESGPGLVKPSETLSLTCTVSGGSISSSDYYWGWIRQPPGKGLEWIGSIYYSGSTYYNPSLKSRVTISVDTSKNQFSLKLSSVTAADTAVYYCARGQYSSGWYAYPFDMWGQGTMVTVSS
VL: EIVLTQSPGTLSLSPGERATLSCRASQSVRSSYLAWYQQKPGQAPRLLIYGASSRATGIPDRFSGSGSGTDFTLTISRLEPEDFAVYYCQQDSNVYTFGGGTKVEIK
- ADCC Max. % lysis [2]: 44%

B4: aCD38-b-348-m3 (antibody, IgG1, V domains shown)
VH: QLQLQESGPGLVKPSETLSLTCTVSGGSISSSDYYWGWIRQPPGKGLEWIGSIYYSGSTYYNPSLKSRVTISVDTSKNQFSLKLSSVTAADTAVYYCARGQYSSGWYAYPFDMWGQGTMVTVSS
VL: EIVLTQSPGTLSLSPGERATLSCRASQSVRSSYLAWYQQKPGQAPRLLIYGASSRATGIPDRFSGSGSGTDFTLTISRLEPEDFAVYYCQQDANVYTFGGGTKVEIK
- ADCC Max. % lysis [2]: 39%

B5: aCD38-b-348-m4 (antibody, IgG1, V domains shown)
VH: QLQLQESGPGLVKPSETLSLTCTVSGGSISSSDYYWGWIRQPPGKGLEWIGSIYYSGSTYYNPSLKSRVTISVDTSKNQFSLKLSSVTAADTAVYYCARGQYSSGWYAYPFDMWGQGTMVTVSS
VL: EIVLTQSPGTLSLSPGERATLSCRASQSVRSSYLAWYQQKPGQAPRLLIYGASSRATGIPDRFSGSGSGTDFTLTISRLEPEDFAVYYCQQEGNVYTFGGGTKVEIK
- ADCC Max. % lysis [2]: 38%
